Reference: patent US20240376170A1 (BRIGHT PEAK THERAPEUTICS, published 2024)
Blank lines part the entries; values can stand above or below the binder they belong to. Bridges are numbered along the chain shown (N, C = ends). Primed or numbered codes have the meaning given here. [ ]: non-standard residue; d: D form. Ygp(4) = Tyr with amino-capped PEG8 (O-(8x polyethylene glycol-amino)-tyrosine); Yn3(4) = Tyr with azide-capped PEG9 (O-(9x polyethylene glycol-azido)-tyrosine); Ygp = O-(8x polyethylene glycol-amino)-tyrosine (Tyr, amino-capped PEG8); Yn3 = O-(9x polyethylene glycol-azido)-tyrosine (Tyr, azide-capped PEG9); Ygp″ = O-(8x polyethylene glycol-amino)-tyrosine; Yn3″ = O-(9x polyethylene glycol-azido)-tyrosine; hSer = N[C@@H](CCO)C(=O)O; Nle = CCCC[C@H](N)C(=O)O

Assays:
[1] = target: T1, recombinant human IL-2 receptor beta containing a His-tag and Avi-tag (human, UniProt P14784 27-239); test: BLI (Octet R8), receptor on SAX2 sensor; CMP-167 treated with MMP2 (cleaved)
T1 construct: Bought; attached to the SAX2 biosensor; also called CD122; IL-2R β; not shown: His-tag and Avi-tag
T1 sequence (looked up): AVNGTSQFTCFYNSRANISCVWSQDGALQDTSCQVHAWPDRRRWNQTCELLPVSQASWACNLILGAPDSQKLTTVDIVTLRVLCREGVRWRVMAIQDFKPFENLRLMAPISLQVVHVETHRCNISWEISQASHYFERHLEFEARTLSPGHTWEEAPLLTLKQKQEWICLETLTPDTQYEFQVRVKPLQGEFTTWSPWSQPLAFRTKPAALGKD
Protocol: (§1) Bilayer interferometry (BLI) assays were used to measure the binding constants between activatable IL-2 polypeptides (and activated versions thereof) to IL-2 receptor subunits or receptor complexes. BLI assays were conducted on an Octet® R8 instrument. Assay plates were 96 well, polypropylene, F-bottom (chimney well), black microplates (Greiner Bio-one, Cat. No: 655209). The biosensors were Octet® SAX2 (Sartorius, Cat. No: 18-5136). The assay buffer was 1X Kinetic Buffer (Sartorius, Cat. no: 18-5136) or Phosphate Buffered Saline (PBS) that contained 0.02% (v: v) Tween 20 (Polysorbate 20) and 0.1% (w/v) bovine serum albumin (BSA). The sensor was regenerated between measurements in 10 mM glycine pH 2.7 buffer.
(§2) Sensor attached receptors were either recombinant human IL-2 receptor beta containing a His-tag and Avi-tag™ (R&D Systems™) or an Avi-tag™ Fc with human IL-2R beta and IL-2R gamma attached (Acrobiosystems Cat. no: ACRB-ILG-H₈₂F3-25UG). Receptors were reconstituted from lyophilized powder to 500 μg/ml in PBS. Analytes were diluted in Kinetic buffer to 300 nM, then serially diluted to lower concentrations.

[2] = target: T2, Avi-tag Fc with human IL-2R beta and IL-2R gamma attached (Acrobiosystems ACRB-ILG-H82F3-25UG) (human, UniProt P14784 27-239; P31785 23-262); test: as above
T2 construct: Bought; attached to the SAX2 biosensor; also called CD122 CD132; IL-2R βγ; not shown: Fc and Avi-tag
T2 sequence (looked up) 1: T1 sequence (looked up)
T2 sequence (looked up) 2: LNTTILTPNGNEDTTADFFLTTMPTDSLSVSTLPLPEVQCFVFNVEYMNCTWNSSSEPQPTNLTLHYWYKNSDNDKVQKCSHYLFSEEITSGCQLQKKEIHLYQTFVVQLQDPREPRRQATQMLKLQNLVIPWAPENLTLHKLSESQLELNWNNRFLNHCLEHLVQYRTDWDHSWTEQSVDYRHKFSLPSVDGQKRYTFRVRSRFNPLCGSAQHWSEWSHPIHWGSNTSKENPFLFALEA
Protocol: as §1, §2

[3] = target: T1, recombinant human IL-2 receptor beta …; test: BLI (Octet R8), receptor on SAX2 sensor
In short: (§3)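 Receptor immobilized on SAX2 biosensors; analytes (intact or MMP2-cleaved activatable IL-2 constructs) started at 300 nM and serially diluted in Kinetic buffer or PBS with 0.02% Tween 20 and 0.1% BSA. Binding constants measured by biolayer interferometry; sensors regenerated with 10 mM glycine pH 2.7 between runs.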

[4] = target: T2, Avi-tag Fc with human IL-2R beta and …; test: BLI (Octet R8), receptor on SAX2 sensor
In short: as §3

[5] = target: T1, recombinant human IL-2 receptor beta …; test: BLI (Octet R8), receptor on SAX2 sensor; construct CMP-328, not MMP2-treated
Protocol: as §1, §2

[6] = target: T1, recombinant human IL-2 receptor beta …; test: BLI (Octet R8), receptor on SAX2 sensor; construct CMP-313, not MMP2-treated
Protocol: as §1, §2

[7] = target: T2, Avi-tag Fc with human IL-2R beta and …; test: as above
Protocol: as §1, §2

[8] = target: T1, recombinant human IL-2 receptor beta …; test: BLI (Octet R8), receptor on SAX2 sensor; construct CMP-167, intact (no MMP2)
Protocol: as §1, §2

[9] = target: T2, Avi-tag Fc with human IL-2R beta and …; test: as above
Protocol: as §1, §2

Kd [1]: 658 nM
Kd [2]: 1.55 nM
koff [3]: 0.227 s⁻¹
kon [3]: 345000 M⁻¹ s⁻¹
koff [4]: 0.000923 s⁻¹
kon [4]: 594000 M⁻¹ s⁻¹
B1: CMP-167, MMP2 cleaved (ligand)
chain: APTSSSTKKTQLQLEHLLLDLQKILNGINNYKNPKLTR[Nle]L[hSer][Yn3″]KF[Ygp″][Nle]PKKATELKHLQCLEEELKPLEEVL[hSer]LAQSKNFHLRPRDLISNINVIVLELKGSETTF[hSer]CEYADETATIVEFLNRWITFSQSIISTLT
modifications: ends and bridges not checked; also: MMP2 cleaved, ring opened, cut site and remnants not given here
notes: Tested after MMP2 treatment

Kd [5]: 0.034 nM
koff [4]: 0.00194 s⁻¹
B2: CMP-328 (ligand)
chain: APTSSSTKKTQLQLEHLLLDLQEILNGINNYKNPKLTR[Nle]L[hSer][Yn3]KF[Ygp][Nle]PKKATELKHLQCLEEELKPLEEVL[hSer]LAQSKNFHLRPRDLISNINVIVLELKGSETTF[hSer]CEYADETATIVEFLNRWITFSQSIISTLT
modifications: bridge 9-23; not fully specified (bridges)
notes: Synthetic IL-2 polypeptide, tested intact

Kd [6]: 163 nM
Kd [7]: 3.4 nM
koff [4]: 0.00148 s⁻¹
B3: CMP-313 (ligand)
chain: APTSSSTKKTQLQLEHLLLDLQKILNGINNYKNPKLTR[Nle]L[hSer][Yn3(4)]KF[Ygp(4)][Nle]PKKATELKHLQCLEEELKPLEEVL[hSer]LAQSKNFHLRPRDLISNINVIVLELKGSETTF[hSer]CEYADETATIVEFLNRWITFSQSIISTLT
modifications: not fully specified; ends and bridges not checked; also: Lys23 side chain carries an attached cleavable peptide moiety (structure only in drawing)
notes: as for B2

koff [3]: 0.993 s⁻¹
Kd [8]: 215 nM
Kd [9]: 23.8 nM
B4: CMP-167 (ligand)
chain: APTSSSTKKTQLQLEHLLLDLQKILNGINNYKNPKLTR[Nle]L[hSer][Yn3]KF[Ygp][Nle]PKKATELKHLQCLEEELKPLEEVL[hSer]LAQSKNFHLRPRDLISNINVIVLELKGSETTF[hSer]CEYADETATIVEFLNRWITFSQSIISTLT
modifications: bridge N-23; not fully specified (bridges); ends not checked
